What all share (assay): SPR
For orientation: In SPR one partner is held on a chip, and binding of the other changes the refractive index at the surface.

Assay [1] concerns the target T1, human FcγRIIb receptor protein (R&D Systems) (human, UniProt P31994 46-217).
T1 construct: Bought protein injected over captured antibody in Biacore; also called CD32b
T1 sequence (looked up): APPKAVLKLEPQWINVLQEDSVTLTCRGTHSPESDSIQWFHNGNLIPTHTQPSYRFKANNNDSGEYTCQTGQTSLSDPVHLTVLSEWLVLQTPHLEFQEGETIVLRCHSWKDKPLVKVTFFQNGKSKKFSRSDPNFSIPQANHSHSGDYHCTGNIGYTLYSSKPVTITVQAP
The method, then:
(§1) Variants were screened for receptor affinity using Biacore™ technology, also referred to as Biacore herein, a surface plasmon resonance (SPR) based technology for studying biomolecular interactions in real time. SPR measurements were performed using a Biacore 3000 instrument (Biacore, Piscataway, N.J.). A protein A/G (Pierce Biotechnology) CM5 biosensor chip (Biacore) was generated using a standard primary amine coupling protocol. All measurements were performed using HBS-EP buffer (10 mM HEPES pH 7.4, 0.15 M NaCl, 3 mM EDTA, 0.005% vol/vol surfactant P20, Biacore). Antibodies at 20 nM or 50 nM in HBS-EP buffer were immobilized on the protein A/G surface and FcγRs were injected. After each cycle, the surface was regenerated by injecting glycine buffer (10 mM, pH 1.5). Data were processed by zeroing time and response before the injection of FcγR and by subtracting appropriate nonspecific signals (response of reference channel and injection of running buffer). Kinetic analyses were performed by global fitting of binding data with a 1:1 Langmuir binding model using BIAevaluation software (Biacore).

In another assay the target is T2, mFcγRIIb (Mus musculus, UniProt P08101).
T2 construct: extracellular region, C-terminal His- and GST-tag; also called mouse FcγRII
T2 sequence (receptor extracellular region, looked up): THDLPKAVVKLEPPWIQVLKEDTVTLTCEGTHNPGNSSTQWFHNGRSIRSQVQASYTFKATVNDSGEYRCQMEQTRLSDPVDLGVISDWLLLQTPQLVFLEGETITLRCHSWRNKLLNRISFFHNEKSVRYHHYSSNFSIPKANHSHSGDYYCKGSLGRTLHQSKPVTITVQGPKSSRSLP
Here is the method:
as §1
(§2) Variant antibodies were tested for their affinity to mouse or cynologous monkey FcγRs using Biacore SPR as described above. Specifically, antibodies were first immobilized on a protein A/G chip to high density, and then followed by injections of the extracellular domain of the mouse or cynologous monkey FcγR of interest. Both association and dissociation phases were tracked in real time using the Biacore technology.

In a further assay the target is T3, cynoFcγRIIb (Macaca fascicularis, UniProt A0A140HDP4).
T3 construct: extracellular region, C-terminal His- and GST-tag; also called cynomolgus monkey FcγRIIb
T3 sequence (receptor extracellular region): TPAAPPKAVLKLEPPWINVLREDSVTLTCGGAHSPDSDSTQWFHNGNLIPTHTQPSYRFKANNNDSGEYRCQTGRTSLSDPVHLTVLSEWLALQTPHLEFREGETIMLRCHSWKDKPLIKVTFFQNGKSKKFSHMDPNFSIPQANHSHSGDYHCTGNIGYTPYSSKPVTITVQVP
Here is the method: as §1, §2

Assay [2] has as its target T4, human FcγRIIa (131R), His- and GST-tagged (human, UniProt P12318 34-217).
T4 construct: Expressed in HEK293T cells, purified by nickel chromatography; also called R131 FcγRIIa; not shown: 6xHis and GST tags of the pTT5 vector
T4 sequence (looked up): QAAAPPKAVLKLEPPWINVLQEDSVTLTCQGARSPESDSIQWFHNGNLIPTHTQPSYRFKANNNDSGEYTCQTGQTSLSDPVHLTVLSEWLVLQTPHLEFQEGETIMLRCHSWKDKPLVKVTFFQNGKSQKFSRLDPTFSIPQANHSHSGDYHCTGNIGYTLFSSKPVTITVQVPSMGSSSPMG
The method, then: as §1

Assay [3] has as its target T5, human FcγRIIa (131H), His- and GST-tagged (human, UniProt P12318 34-217).
T5 construct: also called H131 FcγRIIa; HIIa; not shown: 6xHis and GST tags of the pTT5 vector
T5 sequence (looked up): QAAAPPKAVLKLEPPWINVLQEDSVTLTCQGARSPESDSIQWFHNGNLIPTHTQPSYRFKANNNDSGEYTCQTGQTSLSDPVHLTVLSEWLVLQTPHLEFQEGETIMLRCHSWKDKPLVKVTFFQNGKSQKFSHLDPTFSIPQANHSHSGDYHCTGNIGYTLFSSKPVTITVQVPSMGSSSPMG
Here is the method: as §1

Assay [4] addresses T6, human FcγRI receptor protein (R&D Systems) (human, UniProt P12314 16-288).
T6 construct: also called soluble FcγRI; solFcγRI
The method, then: as §1

Consider seven molecules from patent publication US20130315910A1 (Xencor, published 2013).

For orientation: Kd means the constant that tells how readily two partners part at equilibrium. Low values mean higher affinity, high ones lower affinity.

T6 sequence (P12314 16-288 limits assumed): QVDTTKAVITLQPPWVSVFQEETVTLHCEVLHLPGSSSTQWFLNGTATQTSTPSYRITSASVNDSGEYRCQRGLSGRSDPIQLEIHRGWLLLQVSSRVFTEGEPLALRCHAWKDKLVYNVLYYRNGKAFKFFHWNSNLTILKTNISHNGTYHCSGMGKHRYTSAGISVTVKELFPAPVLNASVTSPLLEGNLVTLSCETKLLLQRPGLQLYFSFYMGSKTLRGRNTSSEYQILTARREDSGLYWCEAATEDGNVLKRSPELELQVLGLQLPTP

B1: H268D/L328F/I332E (antibody, human IgG1, kappa)
heavy: EVQLVESGGGLVKPGGSLKLSCAASGYTFTSYVMHWVRQAPGKGLEWIGYINPYNDGTKYNEKFQGRVTISSDKSISTAYMELSSLRSEDTAMYYCARGTYYYGTRVFDYWGQGTLVTVSSASTKGPSVFPLAPSSKSTSGGTAALGCLVKDYFPEPVTVSWNSGALTSGVHTFPAVLQSSGLYSLSSVVTVPSSSLGTQTYICNVNHKPSNTKVDKKVEPKSCDKTHTCPPCPAPELLGGPSVFLFPPKPKDTLMISRTPEVTCVVVDVSDEDPEVKFNWYVDGVEVHNAKTKPREEQYNSTYRVVSVLTVLHQDWLNGKEYKCKVSNKAFPAPEEKTISKAKGQPREPQVYTLPPSREEMTKNQVSLTCLVKGFYPSDIAVEWESNGQPENNYKTTPPVLDSDGSFFLYSKLTVDKSRWQQGNVFSCSVMHEALHNHYTQKSLSLSPGK
light: DIVMTQSPATLSLSPGERATLSCRSSKSLQNVNGNTYLYWFQQKPGQSPQLLIYRMSNLNSGVPDRFSGSGSGTEFTLTISSLEPEDFAVYYCMQHLEYPITFGAGTKLEIKRTVAAPSVFIFPPSDEQLKSGTASVVCLLNNFYPREAKVQWKVDNALQSGNSQESVTEQDSKDSTYSLSSTLTLSKADYEKHKVYACEVTHQGLSSPVTKSFNRGEC
notes: HuAM4G7 anti-CD19 IgG1 (m1) with these Fc substitutions, EU index; copies: 2 + 2
Consider B1, for which, in assay [1], the “Fold vs WT IgG1” value is 12.3 fold and the Kd was determined as 119 nM. Further, in the assay with mFcγRIIb, the “Fold vs WT IgG1 (Kd)” value came to 1.48 fold. Moreover, the “Fold vs WT IgG1 (Kd)” value with cynoFcγRIIb was found to be 4.88 fold.

B2: L234Y (antibody, human IgG1, kappa)
heavy: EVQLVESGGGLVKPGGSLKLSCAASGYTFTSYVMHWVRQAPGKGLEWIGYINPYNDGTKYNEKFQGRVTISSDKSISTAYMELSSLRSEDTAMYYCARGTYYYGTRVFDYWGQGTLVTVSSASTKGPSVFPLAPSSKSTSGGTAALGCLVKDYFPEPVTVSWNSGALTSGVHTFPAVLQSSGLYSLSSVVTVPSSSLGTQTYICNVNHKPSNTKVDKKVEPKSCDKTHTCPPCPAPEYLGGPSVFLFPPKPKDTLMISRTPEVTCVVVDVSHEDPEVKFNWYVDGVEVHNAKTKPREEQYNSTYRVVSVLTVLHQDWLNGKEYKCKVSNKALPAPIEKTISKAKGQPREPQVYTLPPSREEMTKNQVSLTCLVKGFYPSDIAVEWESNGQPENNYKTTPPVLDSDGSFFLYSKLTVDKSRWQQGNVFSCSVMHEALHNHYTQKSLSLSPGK
light: DIVMTQSPATLSLSPGERATLSCRSSKSLQNVNGNTYLYWFQQKPGQSPQLLIYRMSNLNSGVPDRFSGSGSGTEFTLTISSLEPEDFAVYYCMQHLEYPITFGAGTKLEIKRTVAAPSVFIFPPSDEQLKSGTASVVCLLNNFYPREAKVQWKVDNALQSGNSQESVTEQDSKDSTYSLSSTLTLSKADYEKHKVYACEVTHQGLSSPVTKSFNRGEC
notes: HuAM4G7 anti-CD19 IgG1 (m1) with this Fc substitution, EU index; copies: 2 + 2
In the case of B2, in assay [1], the “Fold vs WT IgG1” value amounted to 0.0237 fold and the Kd was 61900 nM. In assay [2], the “Fold vs WT IgG1” value was 0.0511 fold and the Kd worked out at 16800 nM. Moreover, the “Fold vs WT IgG1 (Kd)” value with cynoFcγRIIb stood at 1.01 fold.

B3: H268E/L328Y/I332E (antibody, human IgG1, kappa)
heavy: EVQLVESGGGLVKPGGSLKLSCAASGYTFTSYVMHWVRQAPGKGLEWIGYINPYNDGTKYNEKFQGRVTISSDKSISTAYMELSSLRSEDTAMYYCARGTYYYGTRVFDYWGQGTLVTVSSASTKGPSVFPLAPSSKSTSGGTAALGCLVKDYFPEPVTVSWNSGALTSGVHTFPAVLQSSGLYSLSSVVTVPSSSLGTQTYICNVNHKPSNTKVDKKVEPKSCDKTHTCPPCPAPELLGGPSVFLFPPKPKDTLMISRTPEVTCVVVDVSEEDPEVKFNWYVDGVEVHNAKTKPREEQYNSTYRVVSVLTVLHQDWLNGKEYKCKVSNKAYPAPEEKTISKAKGQPREPQVYTLPPSREEMTKNQVSLTCLVKGFYPSDIAVEWESNGQPENNYKTTPPVLDSDGSFFLYSKLTVDKSRWQQGNVFSCSVMHEALHNHYTQKSLSLSPGK
light: DIVMTQSPATLSLSPGERATLSCRSSKSLQNVNGNTYLYWFQQKPGQSPQLLIYRMSNLNSGVPDRFSGSGSGTEFTLTISSLEPEDFAVYYCMQHLEYPITFGAGTKLEIKRTVAAPSVFIFPPSDEQLKSGTASVVCLLNNFYPREAKVQWKVDNALQSGNSQESVTEQDSKDSTYSLSSTLTLSKADYEKHKVYACEVTHQGLSSPVTKSFNRGEC
notes: as for B1
B3: in assay [1], the “Fold vs WT IgG1” value was determined as 8.53 fold and the Kd came to 172 nM. For the same molecule, the “Fold vs WT IgG1 (Kd)” value with mFcγRIIb was determined as 1.5 fold. The “Fold vs WT IgG1 (Kd)” value with cynoFcγRIIb amounted to 4.16 fold.

B4: L235T/S267E (antibody, human IgG1, kappa)
heavy: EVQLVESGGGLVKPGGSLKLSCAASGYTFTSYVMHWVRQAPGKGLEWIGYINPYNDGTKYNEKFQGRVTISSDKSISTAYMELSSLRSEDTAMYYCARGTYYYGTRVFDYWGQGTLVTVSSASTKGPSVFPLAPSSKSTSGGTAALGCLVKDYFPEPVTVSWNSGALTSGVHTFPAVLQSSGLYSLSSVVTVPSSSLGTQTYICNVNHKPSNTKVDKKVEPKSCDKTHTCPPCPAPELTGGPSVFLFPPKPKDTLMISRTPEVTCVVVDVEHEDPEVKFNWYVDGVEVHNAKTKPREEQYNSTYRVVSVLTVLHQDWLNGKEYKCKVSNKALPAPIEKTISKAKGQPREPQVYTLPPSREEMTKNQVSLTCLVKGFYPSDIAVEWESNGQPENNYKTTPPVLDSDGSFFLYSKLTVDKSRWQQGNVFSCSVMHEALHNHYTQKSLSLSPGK
light: DIVMTQSPATLSLSPGERATLSCRSSKSLQNVNGNTYLYWFQQKPGQSPQLLIYRMSNLNSGVPDRFSGSGSGTEFTLTISSLEPEDFAVYYCMQHLEYPITFGAGTKLEIKRTVAAPSVFIFPPSDEQLKSGTASVVCLLNNFYPREAKVQWKVDNALQSGNSQESVTEQDSKDSTYSLSSTLTLSKADYEKHKVYACEVTHQGLSSPVTKSFNRGEC
notes: as for B1
Consider B4, for which the figures for the “Fold vs WT IgG1” value in assay [1] and in assay [2] were 2.37 fold and 3.06 fold, respectively. The figures for the Kd in assay [1] and in assay [2] were 619 nM and 281 nM, respectively.

B5: L235W (antibody, human IgG1, kappa)
heavy: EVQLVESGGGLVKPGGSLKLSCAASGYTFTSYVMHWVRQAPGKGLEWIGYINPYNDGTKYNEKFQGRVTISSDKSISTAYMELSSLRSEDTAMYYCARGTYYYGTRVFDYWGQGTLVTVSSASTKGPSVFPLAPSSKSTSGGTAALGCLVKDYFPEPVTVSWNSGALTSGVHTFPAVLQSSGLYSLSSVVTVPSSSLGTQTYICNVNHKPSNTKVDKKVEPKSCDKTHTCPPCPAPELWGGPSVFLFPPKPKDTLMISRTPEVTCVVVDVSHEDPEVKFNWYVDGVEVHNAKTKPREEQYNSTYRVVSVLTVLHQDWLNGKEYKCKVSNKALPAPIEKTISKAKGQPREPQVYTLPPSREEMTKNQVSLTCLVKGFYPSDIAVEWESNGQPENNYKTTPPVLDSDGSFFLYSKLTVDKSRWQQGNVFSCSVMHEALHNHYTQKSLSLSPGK
light: DIVMTQSPATLSLSPGERATLSCRSSKSLQNVNGNTYLYWFQQKPGQSPQLLIYRMSNLNSGVPDRFSGSGSGTEFTLTISSLEPEDFAVYYCMQHLEYPITFGAGTKLEIKRTVAAPSVFIFPPSDEQLKSGTASVVCLLNNFYPREAKVQWKVDNALQSGNSQESVTEQDSKDSTYSLSSTLTLSKADYEKHKVYACEVTHQGLSSPVTKSFNRGEC
notes: as for B2
Take B5: the binding result in assay [1] and in assay [2] was “no binding” throughout. Moreover, in the assay with cynoFcγRIIb, the “Fold vs WT IgG1 (Kd)” value was determined as 1.44 fold.

B6: S239D/S267E/H268E (antibody, human IgG1, kappa)
heavy: EVQLVESGGGLVKPGGSLKLSCAASGYTFTSYVMHWVRQAPGKGLEWIGYINPYNDGTKYNEKFQGRVTISSDKSISTAYMELSSLRSEDTAMYYCARGTYYYGTRVFDYWGQGTLVTVSSASTKGPSVFPLAPSSKSTSGGTAALGCLVKDYFPEPVTVSWNSGALTSGVHTFPAVLQSSGLYSLSSVVTVPSSSLGTQTYICNVNHKPSNTKVDKKVEPKSCDKTHTCPPCPAPELLGGPDVFLFPPKPKDTLMISRTPEVTCVVVDVEEEDPEVKFNWYVDGVEVHNAKTKPREEQYNSTYRVVSVLTVLHQDWLNGKEYKCKVSNKALPAPIEKTISKAKGQPREPQVYTLPPSREEMTKNQVSLTCLVKGFYPSDIAVEWESNGQPENNYKTTPPVLDSDGSFFLYSKLTVDKSRWQQGNVFSCSVMHEALHNHYTQKSLSLSPGK
light: DIVMTQSPATLSLSPGERATLSCRSSKSLQNVNGNTYLYWFQQKPGQSPQLLIYRMSNLNSGVPDRFSGSGSGTEFTLTISSLEPEDFAVYYCMQHLEYPITFGAGTKLEIKRTVAAPSVFIFPPSDEQLKSGTASVVCLLNNFYPREAKVQWKVDNALQSGNSQESVTEQDSKDSTYSLSSTLTLSKADYEKHKVYACEVTHQGLSSPVTKSFNRGEC
notes: as for B1
Consider B6, for which the figures for the Kd in assay [3], in assay [4] and in assay [1] were 817 nM, 0.326 nM and 6.91 nM, respectively.

B7: L235H (antibody, human IgG1, kappa)
heavy: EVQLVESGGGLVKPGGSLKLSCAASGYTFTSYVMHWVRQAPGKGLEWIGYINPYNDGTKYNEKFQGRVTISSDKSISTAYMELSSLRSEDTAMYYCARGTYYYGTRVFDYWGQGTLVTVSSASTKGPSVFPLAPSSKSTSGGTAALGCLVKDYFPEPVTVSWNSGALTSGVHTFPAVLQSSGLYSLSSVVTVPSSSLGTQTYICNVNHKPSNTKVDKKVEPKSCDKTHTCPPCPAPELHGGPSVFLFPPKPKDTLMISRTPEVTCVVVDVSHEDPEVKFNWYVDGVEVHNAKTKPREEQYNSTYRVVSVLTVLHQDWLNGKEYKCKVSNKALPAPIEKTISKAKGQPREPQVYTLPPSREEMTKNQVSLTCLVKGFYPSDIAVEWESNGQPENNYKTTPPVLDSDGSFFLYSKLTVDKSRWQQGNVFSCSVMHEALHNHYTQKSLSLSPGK
light: DIVMTQSPATLSLSPGERATLSCRSSKSLQNVNGNTYLYWFQQKPGQSPQLLIYRMSNLNSGVPDRFSGSGSGTEFTLTISSLEPEDFAVYYCMQHLEYPITFGAGTKLEIKRTVAAPSVFIFPPSDEQLKSGTASVVCLLNNFYPREAKVQWKVDNALQSGNSQESVTEQDSKDSTYSLSSTLTLSKADYEKHKVYACEVTHQGLSSPVTKSFNRGEC
notes: as for B2
Turning to B7, in assay [1], the “Fold vs WT IgG1” value was found to be 0.734 fold and binding was characterised by a dissociation constant (Kd) of 2000 nM. In assay [2], the “Fold vs WT IgG1” value was found to be 0.756 fold and binding was put at a Kd of 1140 nM. Moreover, in the assay with cynoFcγRIIb, the “Fold vs WT IgG1 (Kd)” value was determined as 0.832 fold.
